The values that follow come from US20240165208A1, “Mutant KRAS-Targeting Peptide and Use Thereof” (GJMEDI INC., priority 2020, published 2024).

No end group written: not given here.

Data set [1] can be described thus: body weight and general condition in cancer animal model. Particulars: GJ101 25 mg/kg or 50 mg/kg. The data set is classed as in vivo. As for the experimental part:
To prepare a cancer animal model, AsPC-1 cells as a pancreatic cancer cell line were prepared by dissociation in a Hanks' balanced salt solution (HBSS) and a materigel. The prepared AsPC-1 cells were transplanted into the right flank of a nude mouse at an amount of 2×10^6 cells/10 μL/animal to prepare a cancer animal model.
For an experiments to be described later, the anticancer peptide GJ101 was administered at a concentration of 25 mg/kg or 50 mg/kg from day 16 after the preparation of the cancer animal model. In addition, a control group (Vehicle) was treated with 10% DMSO, 40% PEG400, and 50% DW.
A drug was administered to a cancer animal model, and then the body weight of the individual was measured once a day, and the result were illustrated in FIG. 6.

The subject of another data set is AsPC-1 cells. The data set is classed as cell-based. Particulars: 48 h. The protocol:
Through 3-(4,5-dimethylthiazol-2-yl)-2,5-diphenyltetrazolium bromide (MTT) analysis, an effect of the anticancer peptide GJ101 on the cell viability of cancer cells was examined. For the cell viability analysis, AsPC-1 cells as a pancreatic cancer cell line were used. The pancreatic cancer cell line was prepared by dispensing the pancreatic cancer cell line at 1×10^3 cells/well (100 μL) and adhering thereto. To treat the anticancer peptide GJ101, the medium of the cells was replaced with a new medium (RPMI-1640). The pancreatic cancer cell lines with different adhering times were treated with the anticancer peptide GJ101 while increasing a concentration gradient, respectively. The pancreatic cancer cells treated with the anticancer peptide GJ101 were incubated for 24 or 48 hours, respectively. Each incubated pancreatic cancer cell was added with an MTT solution (5 mg/mL) and incubated for 90 minutes. After the end of the incubation, an optical density (OD) of pancreatic cancer cells was measured at 540 nm using a microplate reader (Molecular Devices, USA), and a maximum concentration (GI50) at which the growth of pancreatic cancer cells was reduced by half was confirmed. The result of examining the effect of the anticancer peptide GJ101 on the cell viability of tumor cells was illustrated in FIG. 5.

The target of data set [2] is T1, KRAS G12V protein (UniProt P01116-2 1-188, limits assumed).
T1 construct: also called mutant KRAS G12V; mutant Kirsten-RAS
The data set is described as follows: ITC, calculated from K and ΔH. As for the experimental part:
(§1) In order to examine the affinity of the anticancer peptide GJ101 to the KRAS G12V protein, isothermal titration heat was measured using isothermal titration calorimetry (ITC). Specifically, the KRAS G12V protein was prepared by dialysis with a buffer [20 mM Tris-HCl (pH 7.4), 100 mM NaCl, and 2 mM MgCl₂] so that the final concentration of the KRAS G12V protein was 0.1 mM. Next, the anticancer peptide GJ101 was prepared by diluting the anticancer peptide GJ101 to a concentration of 1.0 mM using the same buffer as described above. Isothermal titration heat measurement was performed by injecting the prepared KRAS G12V protein and anticancer peptide GJ101 into isothermal titration calorimetry. In the isothermal titration heat measurement, the anticancer peptide GJ101 was injected 20 times at 25° C. while stirring at a rate of 1,000 rpm. ΔS was calculated from a standard thermodynamic equation using the calculated K and ΔH values. The results of isothermal titration calorimetry were illustrated in FIG. 3.

Data set [3] deals with T1, KRAS G12V protein. The data set is described as follows: ITC, GJ101 (1.0 mM) injected into KRAS G12V (0.1 mM), 25 °C. The protocol: as §1

LYDVA [GJ101]: in data set [1], the “moribund state or behavioral abnormalities” value is given as “not observed”. Besides, in the data set with AsPC-1 cells, the GI50 (commonly the concentration giving 50% growth inhibition) stood at 16 µM.

B1: anticancer peptide GJ101 (peptide)
peptide: LYDVA
notes: Synthesised by solid phase peptide synthesis and purified by RP-HPLC to 95% or more; said to consist of 5 amino acids and to be derived from H-REV107; also called mutant KRAS-targeting anticancer peptide
B1: the ΔS in the data set with KRAS G12V protein [2] was 19.3 cal/mol/deg. In the data set with KRAS G12V protein [3], the Ka was 86500 M⁻¹, binding was put at a Kd of 12 µM and the ΔH was -0.994 kcal/mol.
